4 molecules from patent CN113135995A (SHANGHAI INST OF BIOLOGICAL PRODUCTS CO LTD, dated 2021) can be followed below.

Assay [1] has as its target T1, HER3胞外区重组蛋白 (recombinant HER3 extracellular domain protein, expressed in CHO cells) (human, UniProt P21860 20-643).
T1 construct: also called HER3蛋白
Nature of the assay: ProteOn XPR36 SPR, ratio of KD values.

Assay [2] concerns the target T1, HER3胞外区重组蛋白 (recombinant HER3 …). Nature of the assay: ProteOn XPR36 SPR; antibody captured by goat anti-human IgG Fc on GLM chip, HER3 protein 0.625-10 nM as analyte.
The target of assay [3] is 细胞表面HER3分子 (HER3 on the surface of human tumour cells) (human, UniProt P21860 20-1342). Briefly: cell-based or functional assay.
细胞表面HER3分子 (HER3 on the surface of human tumour cells), sequence (P21860 20-1342 limits assumed): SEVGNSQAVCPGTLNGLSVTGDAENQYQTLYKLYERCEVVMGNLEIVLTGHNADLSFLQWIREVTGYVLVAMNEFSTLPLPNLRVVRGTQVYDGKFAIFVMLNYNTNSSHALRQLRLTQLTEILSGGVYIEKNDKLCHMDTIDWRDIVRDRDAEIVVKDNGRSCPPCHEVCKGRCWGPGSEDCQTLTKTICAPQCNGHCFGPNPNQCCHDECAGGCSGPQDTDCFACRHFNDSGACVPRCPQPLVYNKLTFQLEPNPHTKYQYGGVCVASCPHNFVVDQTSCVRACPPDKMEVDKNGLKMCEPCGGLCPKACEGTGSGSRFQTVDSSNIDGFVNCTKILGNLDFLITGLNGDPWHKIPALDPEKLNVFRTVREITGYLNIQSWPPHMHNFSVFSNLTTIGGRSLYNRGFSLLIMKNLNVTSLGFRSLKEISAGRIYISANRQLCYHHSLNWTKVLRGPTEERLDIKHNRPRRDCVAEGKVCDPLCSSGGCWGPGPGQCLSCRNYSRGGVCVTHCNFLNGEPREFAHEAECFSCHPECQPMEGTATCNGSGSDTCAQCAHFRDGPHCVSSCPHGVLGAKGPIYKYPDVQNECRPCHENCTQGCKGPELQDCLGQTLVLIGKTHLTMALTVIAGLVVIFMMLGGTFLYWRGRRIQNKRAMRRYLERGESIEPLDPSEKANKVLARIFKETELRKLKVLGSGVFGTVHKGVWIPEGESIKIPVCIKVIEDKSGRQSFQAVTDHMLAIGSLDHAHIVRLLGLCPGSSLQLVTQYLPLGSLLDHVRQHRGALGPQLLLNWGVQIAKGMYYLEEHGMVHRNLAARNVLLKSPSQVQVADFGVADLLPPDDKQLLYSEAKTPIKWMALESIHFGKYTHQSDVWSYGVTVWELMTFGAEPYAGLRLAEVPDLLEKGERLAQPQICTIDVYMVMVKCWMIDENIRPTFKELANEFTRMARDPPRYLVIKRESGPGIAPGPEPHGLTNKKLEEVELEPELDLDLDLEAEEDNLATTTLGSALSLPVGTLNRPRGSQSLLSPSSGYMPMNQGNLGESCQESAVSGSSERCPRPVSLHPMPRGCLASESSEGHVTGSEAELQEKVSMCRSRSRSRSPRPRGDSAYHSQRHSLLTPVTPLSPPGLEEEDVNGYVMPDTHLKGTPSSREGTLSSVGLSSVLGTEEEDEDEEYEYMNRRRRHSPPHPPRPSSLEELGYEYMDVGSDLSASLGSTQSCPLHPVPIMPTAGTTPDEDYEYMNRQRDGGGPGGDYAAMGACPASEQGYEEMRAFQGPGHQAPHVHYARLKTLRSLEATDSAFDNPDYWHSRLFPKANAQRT
Assay [4] concerns the target T2, hGH标签的HER3胞外区蛋白 (hGH-tagged HER3 extracellular domain protein) (human, UniProt P21860 20-643).
T2 construct: also called HER3分子; not shown: hGH tag
Briefly: blocking ELISA: HRG coated, hGH-tagged HER3 ECD 1 ug/ml, antibody from 2 ug/ml in 1:3 steps, HRP anti-hGH detection. On the technique in general: ELISA stands for enzyme-linked immunosorbent assay.

T1 sequence (P21860 20-643 limits assumed): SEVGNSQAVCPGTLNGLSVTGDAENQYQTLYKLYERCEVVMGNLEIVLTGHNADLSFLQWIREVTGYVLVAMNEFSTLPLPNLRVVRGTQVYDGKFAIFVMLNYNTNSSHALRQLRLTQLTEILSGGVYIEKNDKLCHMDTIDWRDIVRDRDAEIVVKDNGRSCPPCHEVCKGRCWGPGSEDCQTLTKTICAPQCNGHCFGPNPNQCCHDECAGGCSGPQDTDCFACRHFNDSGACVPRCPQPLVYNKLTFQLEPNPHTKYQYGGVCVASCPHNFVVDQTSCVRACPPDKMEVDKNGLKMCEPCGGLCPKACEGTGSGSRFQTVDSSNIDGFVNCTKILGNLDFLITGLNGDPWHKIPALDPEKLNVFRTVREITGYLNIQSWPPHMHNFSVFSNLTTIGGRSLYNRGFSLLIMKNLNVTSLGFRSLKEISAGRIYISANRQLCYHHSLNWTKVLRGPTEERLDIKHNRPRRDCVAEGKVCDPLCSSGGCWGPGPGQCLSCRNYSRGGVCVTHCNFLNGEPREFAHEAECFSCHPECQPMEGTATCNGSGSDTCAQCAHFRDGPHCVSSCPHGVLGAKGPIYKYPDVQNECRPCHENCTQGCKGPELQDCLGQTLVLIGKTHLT
T2 sequence (P21860 20-643): as the sequence (P21860 20-643 limits assumed) above

B1: hu1044Y抗体 (optimised humanized anti-HER3 antibody hu1044Y) (antibody, human IgG1, kappa, V domains shown)
VH: QVQLVQSGAEVKKPGSSVKVSCKASGYTFSNYWIDWVKQAPGQGLEWMGEILPGSGGTDYNEKFKGRVTITADTSTSTAYMELSSLRSEDTAVYYCARDDYDVFAYWGQGTLVTVSS
VL: DIVMTQSPGTLSLSPGERATLSCRSSKSLLHSNGITYLYWYQQKPGQAPRLLIYQMSNLASGIPDRFSSSGSGTDFTLTISRLEPEDFAVYYCAQNLELPWTFGQGTKVEIKR
notes: hu1044 with heavy chain position 27 changed from Gly to Tyr
The Kd is the concentration at which binding is half-saturated. On to B1, for which, in assay [1], the “fold increase in affinity against hu1044” value is ~2 倍 (fold). In assay [2], the Kd amounted to 0.232 nM.

B2: hu1044抗体 (humanized anti-HER3 monoclonal antibody hu1044) (antibody, V domains shown)
VH: QVQLVQSGAEVKKPGSSVKVSCKASGGTFSNYWIDWVKQAPGQGLEWMGEILPGSGGTDYNEKFKGRVTITADTSTSTAYMELSSLRSEDTAVYYCARDDYDVFAYWGQGTLVTVSS
VL: DIVMTQSPGTLSLSPGERATLSCRSSKSLLHSNGITYLYWYQQKPGQAPRLLIYQMSNLASGIPDRFSSSGSGTDFTLTISRLEPEDFAVYYCAQNLELPWTFGQGTKVEIKR
Regarding B2, the Kd in assay [2] stood at 0.442 nM.

B3: hu1044-7抗体 (humanized anti-HER3 antibody variant hu1044-7) (antibody, V domains shown)
VH: QVQLVQSGAEVKKPGSSVKVSCKASGGTFSNYWIDWVRQAPGQGLEWMGEILPGSGGTDYNEKFKGKATITADTSTSTAYMELSSLRSEDTAVYYCARDDYDVFAYWGQGTLVTVSS
VL: DIVMTQSPGTLSLSPGERATLSCRSSKSLLHSNGITYLYWYQQKPGQAPRLLIYQMSNLASGVPDRFSSSGSGTDFTLTISRLEPEDFAVYYCAQNLELPWTFGQGTKVEIKR
As for B3, the Kd in assay [2] came out at 0.375 nM.

B4: hu1044-7Y抗体 (optimised humanized anti-HER3 antibody hu1044-7Y) (antibody, human IgG1, kappa, V domains shown)
VH: QVQLVQSGAEVKKPGSSVKVSCKASGYTFSNYWIDWVRQAPGQGLEWMGEILPGSGGTDYNEKFKGKATITADTSTSTAYMELSSLRSEDTAVYYCARDDYDVFAYWGQGTLVTVSS
VL: DIVMTQSPGTLSLSPGERATLSCRSSKSLLHSNGITYLYWYQQKPGQAPRLLIYQMSNLASGVPDRFSSSGSGTDFTLTISRLEPEDFAVYYCAQNLELPWTFGQGTKVEIKR
notes: hu1044-7 with heavy chain position 27 changed from Gly to Tyr; In the flow cytometry assays it was labelled with Dylight 488 NHS ester
Broadly, the IC50 is the concentration that gives 50% inhibition. A lower IC50 goes with greater potency. As to B4, the “HRG刺激的乳腺癌MCF-7细胞增殖 IC50 (CCK-8)” value in assay [3] was 0.0133 µg/mL. The “fold increase in affinity against hu1044-7” value in assay [1] is ~3 倍 (fold). In assay [4], this molecule gave an IC50 of approximately 0.1 µg/mL. Also, the Kd in assay [2] was found to be 0.117 nM.
